Data: paper PMC8096068, “The canonical α-SNAP is essential for gametophytic development in Arabidopsis” (PLoS Genetics, 2021)

Molecular target: T1, His-NSF (Arabidopsis, UniProt Q9M0Y8 1-742)
T1 construct: Arabidopsis thaliana N-ethylmaleimide-sensitive factor (NSF), At4g04910; also called NSF-His; his-tagged NSF
T1 sequence (looked up): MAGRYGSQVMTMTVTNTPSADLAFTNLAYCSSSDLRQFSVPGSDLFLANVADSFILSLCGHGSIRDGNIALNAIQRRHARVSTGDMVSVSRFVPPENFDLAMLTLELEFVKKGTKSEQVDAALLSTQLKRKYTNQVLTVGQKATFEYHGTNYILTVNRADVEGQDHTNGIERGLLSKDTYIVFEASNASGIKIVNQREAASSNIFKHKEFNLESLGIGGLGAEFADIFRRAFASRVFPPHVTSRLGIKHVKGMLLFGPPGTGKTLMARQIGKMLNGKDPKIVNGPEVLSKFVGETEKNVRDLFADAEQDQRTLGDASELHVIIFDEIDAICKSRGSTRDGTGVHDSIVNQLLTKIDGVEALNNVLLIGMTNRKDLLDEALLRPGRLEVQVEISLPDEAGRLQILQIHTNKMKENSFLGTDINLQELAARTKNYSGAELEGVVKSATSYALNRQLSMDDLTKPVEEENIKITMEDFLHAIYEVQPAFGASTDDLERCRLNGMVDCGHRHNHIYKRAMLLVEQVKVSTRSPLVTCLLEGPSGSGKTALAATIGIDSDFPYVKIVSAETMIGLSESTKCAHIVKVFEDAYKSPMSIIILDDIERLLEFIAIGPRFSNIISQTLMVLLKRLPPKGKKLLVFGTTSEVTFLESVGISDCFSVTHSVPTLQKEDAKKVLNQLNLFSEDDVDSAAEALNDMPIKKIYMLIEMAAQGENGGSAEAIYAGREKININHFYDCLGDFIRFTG
Experiment: pull-down; in vitro pull-down; NSF-His used to pull down ASNAP.1-GST or ASNAP.2-GST; recombinant proteins from E. coli, affinity-purified
Conditions: both partners purified

B1: GST-ASNAP.1 (natural protein, Arabidopsis, UniProt Q9SPE6 1-289, looked up)
chain: MGDHLVRAEEFEKKAEKKLNGWGIFGSKYEDAADLLEKAANSYKLAKSWDQAGKAYLKLADCHLKSDSKHDAANAYAEAAKCYKKVDTNEAASCLERAVNIFCEIGRLNMAARYYKEIAEYYESDQKFEQAIAYFEKAAEFFQNEEVTTSANQCNLKVAQYAAQLEQYEKAIKIYEDIARHSLNNNLLKYGVKGHLLTAGMCHLCKADVVSITNALEKYQDLDPTFTGTRECKFLADLASAIDEEDIAKFTDVVKEFDSMTPLDSWKTTMLLRVKEKLKAKELEEDDLT
notes: Arabidopsis thaliana alpha-soluble NSF attachment protein ASNAP, splicing variant ASNAP.1 (At3g56190.1); The only vector named for the pull-down constructs is pET-32a, which is not a GST vector; also called ASNAP.1-GST; α-SNAP.1
**Q.** Does B1 bind?
**A.** binds
